Measurements from article PMC3390244.

Target: human transferrin receptor (hTfR, CD71) (human, UniProt P02786 89-760)
Assay: filter binding

Sequence of human transferrin receptor (hTfR, CD71) (P02786 89-760): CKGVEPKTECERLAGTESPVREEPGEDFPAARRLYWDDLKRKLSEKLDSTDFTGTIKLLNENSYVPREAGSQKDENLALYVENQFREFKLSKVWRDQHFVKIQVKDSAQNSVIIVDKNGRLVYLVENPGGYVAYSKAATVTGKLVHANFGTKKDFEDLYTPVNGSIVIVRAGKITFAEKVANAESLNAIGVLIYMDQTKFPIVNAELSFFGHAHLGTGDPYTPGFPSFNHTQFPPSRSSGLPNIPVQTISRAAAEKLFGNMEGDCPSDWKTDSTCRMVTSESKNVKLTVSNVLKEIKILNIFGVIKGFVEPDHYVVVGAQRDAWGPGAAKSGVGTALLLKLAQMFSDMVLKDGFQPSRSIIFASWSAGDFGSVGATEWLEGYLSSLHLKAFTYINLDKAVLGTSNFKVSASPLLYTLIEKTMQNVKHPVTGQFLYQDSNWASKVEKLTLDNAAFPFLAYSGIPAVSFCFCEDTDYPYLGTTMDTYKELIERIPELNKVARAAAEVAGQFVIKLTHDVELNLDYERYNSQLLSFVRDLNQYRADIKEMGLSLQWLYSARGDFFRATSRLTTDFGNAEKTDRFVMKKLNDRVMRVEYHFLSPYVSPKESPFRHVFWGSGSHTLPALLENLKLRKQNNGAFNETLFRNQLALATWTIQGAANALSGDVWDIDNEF

GGGGGAUCAAUCCAAGGGACCCGGAAACGCUCCCUUACACCCC (structured_RNA, 2'-fluoro C and U; 3' inverted dT; 5' thiol) [c2.min] showed a Kd of 102 nM.
